Data reported in patent US9243044B2, “Anticoagulant polypeptide and applications thereof” (GUANGDONG MEDICAL COLLEGE, priority 2011, dated 2016).

T1: human fXIIa (Homo sapiens, UniProt P00748)
T1 construct: Human coagulation factors IIa (thrombin), Xa, XIa, XIIa, EGR-fXa; purchased Haematologic Technologies Inc (United States)
T1 sequence (P00748 373-615 limits assumed): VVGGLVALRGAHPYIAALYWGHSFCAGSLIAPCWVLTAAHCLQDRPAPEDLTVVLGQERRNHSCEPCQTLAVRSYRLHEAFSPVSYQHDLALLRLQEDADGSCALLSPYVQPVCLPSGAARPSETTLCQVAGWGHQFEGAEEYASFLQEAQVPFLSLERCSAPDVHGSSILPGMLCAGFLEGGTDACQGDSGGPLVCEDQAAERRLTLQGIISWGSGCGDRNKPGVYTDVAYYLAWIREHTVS
T1 sequence (P00748 20-372 limits assumed): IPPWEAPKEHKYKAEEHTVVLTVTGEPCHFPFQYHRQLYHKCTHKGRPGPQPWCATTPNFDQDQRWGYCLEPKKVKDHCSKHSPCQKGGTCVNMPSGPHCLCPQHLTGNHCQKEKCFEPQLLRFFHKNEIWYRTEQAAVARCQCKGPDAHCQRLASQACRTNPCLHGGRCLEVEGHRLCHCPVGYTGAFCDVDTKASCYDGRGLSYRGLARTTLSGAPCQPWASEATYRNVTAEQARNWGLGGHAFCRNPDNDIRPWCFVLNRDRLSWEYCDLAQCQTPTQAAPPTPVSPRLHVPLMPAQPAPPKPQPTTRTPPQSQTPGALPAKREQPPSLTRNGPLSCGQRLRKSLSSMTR


Columns and labels:
Format in all cases: biochemical
normal human plasma [1] = assay: PT assay in normal human plasma; settings: for PT: normal human plasma
Experimental: (§1) The recombinant anticoagulant polypeptides were expressed in Escherichia coli and purified in our laboratory. Anticoagulant activity was determined by measuring the aPTT and PT.
For the PT assay, 10 μl recombinant protein at various concentration was mixed with 45 μl normal human plasma and incubated for 15 mins at 37° C. 45 μl prewarmed PT reagent (MDC Hemostasis, Germany) was then added and the clotting time was measured with the absorbance at 630 nm by using an E1x808 kinetic microtiter reader (BioTek, United States). Each concentration was repeated 3 times.

normal human plasma [2] = assay: aPTT assay in normal human plasma; settings: for prolongation of aPTT (in words): 100 nM and 500 nM; for aPTT: normal human plasma; for multiples of prolonging aPTT: ratio of mean aPTT to blank control
Experimental: as §1
For the aPTT assay, 10 μl recombinant protein at various concentrations was mixed with 50 μl fresh normal human plasma, 20 μl aPTT reagent (MDC Hemostasis, Germany) and incubated for 15 mins at 37° C. 20 μl 0.05 mol/L prewarmed CaCl2 was then added to initiate the clotting reaction. The clotting time was measured with the absorbance at 630 nm by using an E1x808 kinetic microtiter reader (BioTek, United States). Each concentration was repeated 3 times. The ratio of the mean aPTT value of each concentration to blank control group is multiples of prolonging the aPTT.

human fXa = target: T2, human fXa (Homo sapiens, UniProt P00742); assay: Chromogenic assay, fXa
T2 construct: Human coagulation factors IIa (thrombin), Xa, XIa, XIIa, EGR-fXa; purchased Haematologic Technologies Inc (United States)
T2 sequence (P00742 41-179 limits assumed): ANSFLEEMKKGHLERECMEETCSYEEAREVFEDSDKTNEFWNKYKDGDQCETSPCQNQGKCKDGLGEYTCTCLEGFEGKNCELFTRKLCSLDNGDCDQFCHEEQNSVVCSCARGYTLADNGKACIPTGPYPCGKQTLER
T2 sequence (P00742 235-488 limits assumed): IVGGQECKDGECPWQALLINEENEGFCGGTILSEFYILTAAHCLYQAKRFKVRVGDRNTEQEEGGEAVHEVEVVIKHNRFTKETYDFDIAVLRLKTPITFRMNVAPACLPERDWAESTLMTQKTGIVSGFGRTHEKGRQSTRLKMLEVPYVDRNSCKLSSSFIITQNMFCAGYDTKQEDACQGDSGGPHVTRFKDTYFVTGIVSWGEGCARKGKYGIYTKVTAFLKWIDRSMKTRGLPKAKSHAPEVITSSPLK
Excerpt: (§2) The recombinant anticoagulant polypeptides in the present invention were expressed in E. coli and purified in our laboratory, of which the activities against coagulation factors were investigated by chromogenic assays. Human coagulation factors IIa (thrombin), Xa, XIa, XIIa, EGR-fXa were products of Haematologic Technologies Inc (United States). Recombinant fVIIa was products of Novo-Nordisk (Denmark). Recombinant soluble tissue factor (sTF) was purchased from Protgen (Beijing, China). The following chromogenic substrates were used for these coagulation factor assays: S2765 for human fXa, S2288 for human fVIIa and fIIa, 52366 for human fXIa and fXIIa, respectively.
(§3) The chromogenic assays were carried out in a total reaction volume of 100 μl in individual wells of a 96-well microtiter plate. 50 μl fIIa, fXa, fXIa, or fXIIa (final concentration: 1 nM) was incubated with 10 μl recombinant anticoagulant polypeptide at various concentrations (or PBS control group) Assays for the detection activity of fVIIa: 50 μl fVIIa+TF (1 μM) and EGR-fXa (final concentration 500 nM) was incubated for 15 mins at 25° C., respectively. After the addition of 40 μl of prewarmed chromogenic substrate to a final concentration of 400 μM, the changes of absorbance at 405 nm were monitored by using an E1x808 kinetic microtiter reader. The data were used to calculate the velocities of response.

human fXIa = target: T3, human fXIa (Homo sapiens, UniProt P03951); assay: Chromogenic assay, fXIa; settings: for inhibition of the activity of fXIa: 100 nM; for inhibition of the activity of fXIa (in words): 200 nM
T3 construct: Human coagulation factors IIa (thrombin), Xa, XIa, XIIa, EGR-fXa; purchased Haematologic Technologies Inc (United States)
T3 sequence (P03951 19-387 limits assumed): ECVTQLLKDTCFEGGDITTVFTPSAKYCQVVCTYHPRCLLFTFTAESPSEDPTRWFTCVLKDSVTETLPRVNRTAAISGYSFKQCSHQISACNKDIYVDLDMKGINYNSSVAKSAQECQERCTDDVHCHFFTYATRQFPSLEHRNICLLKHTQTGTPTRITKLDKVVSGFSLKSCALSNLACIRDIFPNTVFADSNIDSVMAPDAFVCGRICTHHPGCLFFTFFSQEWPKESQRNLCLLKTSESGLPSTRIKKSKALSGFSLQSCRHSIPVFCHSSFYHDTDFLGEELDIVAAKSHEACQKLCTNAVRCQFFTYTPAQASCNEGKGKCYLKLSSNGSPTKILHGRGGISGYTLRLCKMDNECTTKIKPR
T3 sequence (P03951 388-625 limits assumed): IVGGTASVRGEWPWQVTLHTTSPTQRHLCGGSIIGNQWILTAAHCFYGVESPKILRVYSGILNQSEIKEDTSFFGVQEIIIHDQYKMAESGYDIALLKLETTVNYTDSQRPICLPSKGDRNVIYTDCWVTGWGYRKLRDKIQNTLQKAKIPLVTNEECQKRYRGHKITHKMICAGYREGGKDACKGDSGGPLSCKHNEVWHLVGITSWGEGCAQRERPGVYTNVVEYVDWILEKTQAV
Excerpt: as §2, §3

human fXIIa = target: T1, human fXIIa; assay: Chromogenic assay, fXIIa
Excerpt: as §2, §3

human fIIa (thrombin) = target: T4, human fIIa (thrombin) (Homo sapiens, UniProt P00734); assay: Chromogenic assay, fIIa (thrombin)
T4 construct: Human coagulation factors IIa (thrombin), Xa, XIa, XIIa, EGR-fXa; purchased Haematologic Technologies Inc (United States)
Excerpt: as §2, §3

fVIIa/TF = target: T5, fVIIa/TF (Homo sapiens, UniProt P08709); assay: Chromogenic assay, fVIIa/TF
T5 construct: Recombinant fVIIa was products of Novo-Nordisk (Denmark); purchased Novo-Nordisk (Denmark) for fVIIa; Protgen (Beijing, China) for sTF; Haematologic Technologies Inc for EGR-fXa
T5 sequence (P08709 61-212 limits assumed): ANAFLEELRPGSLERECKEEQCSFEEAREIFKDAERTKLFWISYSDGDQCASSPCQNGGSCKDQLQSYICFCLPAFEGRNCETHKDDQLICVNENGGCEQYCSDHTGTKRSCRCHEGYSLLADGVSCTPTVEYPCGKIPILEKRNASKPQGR
T5 sequence (P08709 213-466 limits assumed): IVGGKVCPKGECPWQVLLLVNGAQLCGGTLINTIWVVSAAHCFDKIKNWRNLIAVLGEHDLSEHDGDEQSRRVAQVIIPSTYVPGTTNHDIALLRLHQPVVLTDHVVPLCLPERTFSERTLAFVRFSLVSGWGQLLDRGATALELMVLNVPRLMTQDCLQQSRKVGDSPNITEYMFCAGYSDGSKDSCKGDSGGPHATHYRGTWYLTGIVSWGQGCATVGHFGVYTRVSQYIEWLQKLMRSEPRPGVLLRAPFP
T5 sequence (P13726 33-251 partner limits assumed): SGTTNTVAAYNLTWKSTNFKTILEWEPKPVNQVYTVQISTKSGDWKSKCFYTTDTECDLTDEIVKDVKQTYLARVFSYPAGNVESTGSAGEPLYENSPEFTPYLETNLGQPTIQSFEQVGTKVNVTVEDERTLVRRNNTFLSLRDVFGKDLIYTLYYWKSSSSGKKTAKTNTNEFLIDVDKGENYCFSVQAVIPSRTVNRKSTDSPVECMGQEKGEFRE
Excerpt: as §2, §3

| Molecule | prolongation of PT (in words) (normal human plasma [1]; 100 nM and 500 nM) | PT (normal human plasma [1]; 100 nM) [s] | PT (normal human plasma [1]; 500 nM) [s] | prolongation of aPTT (in words) (normal human plasma [2]) | aPTT (normal human plasma [2]; 100 nM) [s] | multiples of prolonging aPTT (normal human plasma [2]; 100 nM) | aPTT (normal human plasma [2]; 500 nM) [s] | multiples of prolonging aPTT (normal human plasma [2]; 500 nM) | effect on fXa activity (in words) (human fXa; 100 nM) | effect on fXa activity (in words) (human fXa; 200 nM) | inhibition of the activity of fXIa (human fXIa) | inhibition of the activity of fXIa (in words) (human fXIa) | effect on fXIIa activity (in words) (human fXIIa; 100 nM) | effect on fXIIa activity (in words) (human fXIIa; 200 nM) | effect on fIIa activity (in words) (human fIIa (thrombin); 100 nM) | effect on fIIa activity (in words) (human fIIa (thrombin); 200 nM) | effect on fVIIa/TF activity (in words) (fVIIa/TF; 100 nM) | effect on fVIIa/TF activity (in words) (fVIIa/TF; 200 nM) | prolongation of PT (in words) (normal human plasma [1]; 100 nM) | prolongation of PT (normal human plasma [1]; 500 nM) | also measured |
| --- | --- | --- | --- | --- | --- | --- | --- | --- | --- | --- | --- | --- | --- | --- | --- | --- | --- | --- | --- | --- | --- |
| NAPTin-2 (protein, Sequence derived from Ancylostoma caninum or Synthetic) NPSCGENERHDECSRKECDPKCKYDGTEEKDDEKPVVCLTRVCYGDCICRDGFLRNKNGACVKAEDCELDN | couldn't prolong PT | 11.7 ± 1.1 | 12.6 ± 0.5 | significantly prolong aPTT | 80.2 ± 5.1 | 2.0 | 221.8 ± 6.3 | 5.53 | without affecting | without affecting | more than 90% | almost completely inhibited | without affecting | without affecting | without affecting | without affecting | without affecting | without affecting |  |  |  |
| NAPTin-9 (protein, Sequence derived from Ancylostoma caninum or Synthetic) NPSCGENERHDECSRKECDPKCKYDGTEEKDDEKPVVCLTRVCYGDCICRDGFLRNKNGACVKAEDCELDNMEFI |  | 13.0 ± 0.7 | 19.6 ± 0.9 | significantly prolong aPTT | 80.8 ± 3.2 | 2.01 | 235.3 ± 5.4 | 5.87 | without affecting |  | more than 90% |  | without affecting |  | without affecting |  | without affecting |  | almost couldn't prolong PT | less than 1.6 times | inhibition of the activity of fVIIa/TF (fVIIa/TF; 200 nM): about 15% |
| NAPTin-6 (protein, Sequence derived from Ancylostoma caninum or Synthetic) NPSCGENERHDECSRKECDPKCKYDGTEEKDDEKPVVCLTRVCYGDCICRDGFLRNKNGACVKAEDCE | couldn't prolong PT | 12.4 ± 0.9 | 12.6 ± 0.4 | significantly prolong aPTT | 79.5 ± 3.1 | 1.98 | 215.4 ± 5.6 | 5.37 | without affecting | without affecting | more than 90% | almost completely inhibited | without affecting | without affecting | without affecting | without affecting | without affecting | without affecting |  |  |  |
| NAPTin-4 (protein, Sequence derived from Ancylostoma caninum or Synthetic) NPSCGENERHDECSRKECDPKCKYDGTEEKDDEKPVVCLTRVCYGDCICRDGFLRNKNGACVKAEDCELDNME | couldn't prolong PT | 12.4 ± 0.9 | 11.6 ± 0.3 | significantly prolong aPTT | 78.7 ± 3.7 | 1.96 | 233.3 ± 4.5 | 5.82 | without affecting | without affecting | more than 90% | almost completely inhibited | without affecting | without affecting | without affecting | without affecting | without affecting | without affecting |  |  |  |
| NAPTin-8 (protein, Sequence derived from Ancylostoma caninum or Synthetic) NPSCGENERHDECSRKECDPKCKYDGTEEKDDEKPVVCLTRVCYGDCICRDGFLRNKNGACVKAEDCELDNMEF |  | 12.8 ± 0.7 | 17.6 ± 0.6 | significantly prolong aPTT | 79.7 ± 2.9 | 1.99 | 238.6 ± 8.1 | 5.95 | without affecting |  | more than 90% |  | without affecting |  | without affecting |  | without affecting |  | almost couldn't prolong PT | less than 1.6 times | inhibition of the activity of fVIIa/TF (fVIIa/TF; 200 nM): about 15% |
